In patent publication US20230416347A1:

Key:
rVλ6Wil fibrils [1] = assay: EuLISA on rVλ6Wil fibrils (FIG. 5A)
rVλ6Wil fibrils [2] = assay: EuLISA on rVλ6Wil fibrils (FIG. 5B)

B1: VH10/VL4 (antibody, V domains shown)
VH: QVQLQESGPGLVKPSETLSLTCTVSGFSLSSYGVSWIRQPPGKGLEWLGVIWGDGSTNYHPNLMSRLSISKDTSKSQVLLKLSSVTAADTAVYYCVTLDYWGQGTSVTVSS
VL: DVVMTQSPLSLPVTLGQPASISCRSSQSLVHRNGNTYLHWFQQRPGQSPRLLIYKVSNRFSGVPDRFSGSGSGTDFTLKISRVEAEDVGVYFCFQTTYVPNTFGGGTKLEIK
- EC50 (rVλ6Wil fibrils [1]): 17 nM

B2: VH7/VL4 (antibody, V domains shown)
VH: QVQLQESGPGLVKPSETLSLTCTVSGFSLSSYGVSWIRQPPGKGLEWIGVIWGDGSTNYHPNLMSRVTISKDTSKNQVLLKLSSVTAADTAVYYCVTLDYWGQGTSVTVSS
VL: DVVMTQSPLSLPVTLGQPASISCRSSQSLVHRNGNTYLHWFQQRPGQSPRLLIYKVSNRFSGVPDRFSGSGSGTDFTLKISRVEAEDVGVYFCFQTTYVPNTFGGGTKLEIK
- EC50 (rVλ6Wil fibrils [1]): 75 nM

B3: VH8/VL4 (antibody, V domains shown)
VH: QVQLQESGPGLVKPSETLSLTCTVSGFSLSSYGVSWIRQPPGKGLEWIGVIWGDGSTNYHPNLMSRVTISKDTSKSQFSLKLSSVTAADTAVYYCVTLDYWGQGTSVTVSS
VL: DVVMTQSPLSLPVTLGQPASISCRSSQSLVHRNGNTYLHWFQQRPGQSPRLLIYKVSNRFSGVPDRFSGSGSGTDFTLKISRVEAEDVGVYFCFQTTYVPNTFGGGTKLEIK
- EC50 (rVλ6Wil fibrils [1]): 16 nM

B4: VH6/VL3 (antibody, V domains shown)
VH: QVQLQESGPGLVKPSETLSLTCTVSGFSLSSYGVSWVRQPPGKGLEWLGVIWGDGSTNYHPNLMSRLSISKDTSKNQFSLKLSSVTAADTATYYCVTLDYWGQGTSVTVSS
VL: DVVMTQSPLSLPVTLGQPASISCRSSQSLVHRNGNTYLHWYLQRPGQSPRLLIYKVSNRFSGVPDRFSGSGSGTDFTLKISRVEAEDVGLYFCFQTTYVPNTFGGGTKLEIK
- EC50 (rVλ6Wil fibrils [1]): 95 nM
- EC50 (rVλ6Wil fibrils [2]): 95 nM
